Experimental data as given in PMC6270503.

target: E. coli derived recombinant human BMP-2 (human) (UniProt P12643); experiment: SPR; ProteON XPR36, GLC chip; BMP-2 immobilised by amine coupling (1000-2000 RU), CV2 VWC1 proteins as analytes in six concentrations; 25 °C, HBST500 (10 mM HEPES pH 7.4, 500 mM NaCl, 0.005% Tween20); global Langmuir 1:1 fit, KD = koff/kon, or from dose-dependency of equilibrium binding for weak or fast binders; apparent KD
Sequence (P12643 283-396): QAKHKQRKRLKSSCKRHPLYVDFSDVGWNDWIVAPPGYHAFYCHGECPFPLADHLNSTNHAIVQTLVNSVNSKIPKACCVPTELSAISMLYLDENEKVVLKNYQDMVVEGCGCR

| koff [s⁻¹] | Substance |
| --- | --- |
| 0.06 | CV2 VWC1 G4A (domain or fragment) |

target: E. coli derived recombinant human BMP-2 (human) (UniProt P12643); experiment: as above; remark: another data set of the same source

| Substance | Kd [nM] | koff [s⁻¹] | kon [M⁻¹ s⁻¹] |
| --- | --- | --- | --- |
| CV2 VWC1 G4A (domain or fragment) | 239 | > 0.05 |  |
| CV2 VWC1 E10A (domain or fragment) | 13 | 0.0095 | 750000 |

Further lines, results first:

| Kd [nM] | koff [s⁻¹] | kon [M⁻¹ s⁻¹] | Substance |
| --- | --- | --- | --- |
| 12 | 0.0073 | 630000 | CV2 VWC1 E6P (domain or fragment) |
| 13 | 0.0012 | 910000 | CV2 VWC1 InsA10 (domain or fragment) |
| 13 | 0.0087 | 650000 | VWC1 domain (von Willebrand type C domain 1) of Danio rerio Crossveinless 2, wildtype (domain or fragment) |

target: E. coli derived recombinant human BMP-2 (human) (UniProt P12643); experiment: as above; remark: another data set of the same source

| Kd [nM] | Substance |
| --- | --- |
| 14 | VWC1 domain (von Willebrand type C domain 1) of Danio rerio Crossveinless 2, wildtype (domain or fragment) |
